Reference: patent publication US7799901B2, “Modulators of the function of FAS receptors and other proteins” (Yeda Research and Development Co. Ltd., priority 1995, dated 2010)

Assays:
Lamin = assay: Two-hybrid β-galactosidase expression filter assay in SFY526 yeast, DNA-binding domain hybrid Lamin; conditions: specificity test
Excerpt: (§1) To isolate proteins interacting with the intracellular domain of the FAS-R, the yeast two-hybrid system was used (Fields and Song, 1989). […] In this system, the genes for the candidate interacting proteins are cloned into separate expression vectors. In one expression vector, the sequence of the one candidate protein is cloned in phase with the sequence of the GAL4 DNA-binding domain to generate a hybrid protein with the GAL4 DNA-binding-domain, and in the other vector, the sequence of the second candidate protein is cloned in phase with the sequence of the GAL4 activation domain to generate a hybrid protein with the GAL4-activation domain. The two hybrid vectors are then co-transformed into a yeast host strain having a lacZ or HIS3 reporter gene under the control of upstream GAL4 binding sites. […]
(§2) The yeast two-hybrid test was further applied to evaluate the specificity of binding of MACH to MORT-1, in particular, to define the region in MORT-1 to which MACH binds, as well as to determine which of the MACH ORFs interacts with MORT-1, the procedures being as set forth herein above in Examples 1 and 2. Briefly, various MORT-1 and MACH constructs were prepared for testing the interaction of the proteins encoded by the Gal4 DNA-binding domain and activation domain constructs within transfected SFY526 yeast cells as assessed by the β-galactosidase expression filter assay. […]

HeLa cells = assay: Ligand-independent cytocidal effect of MACH expression in HeLa cells, neutral red uptake; type: cell-based, human; conditions: 48 hrs. after transfection, FIG. 6
Procedure: In order to test this possibility, constructs encoding MACH were prepared with a tetracycline-controlled expression vector (for details see Example 1). These constructs were used to transfect HeLa cells in which the vectors were transiently expressed. Besides the MACH constructs, other control constructs were used to evaluate the effect of transient expression on the viability of the HeLa cells to which the effect of the MACH constructs could be compared. These other constructs included MORT-1, human FAS-IC and luciferase (Luc). In addition, co-transfection of the HeLa cells was also tested by using MORT-1 and MACH constructs to determine what effects the interaction between these proteins would cause. After transfection the HeLa cells were incubated and cell viability was evaluated 48 hrs. after transfection either in the presence or the absence of tetracycline (1 μg/ml) to block expression. Cell viability was determined by the neutral red uptake assay.
The results are shown in FIG. 6, which depicts graphically the ligand-independent triggering of cytocidal effects in cells transfected with MACH in comparison to cells transfected with constructs encoding the other proteins as well as cotransfected cells (MORT1+MACH). […]

human FAS DD = target: T1, human FAS DD (Homo sapiens, UniProt P25445); assay: Two-hybrid β-galactosidase expression filter assay in SFY526 yeast, DNA-binding domain hybrid human FAS DD; conditions: specificity test
T1 construct: the ‘death domain’ region of the intracellular domain of the human Fas-R (human Fas DD); expressed in transfected cells; host or cells: SFY526 yeast
T1 sequence (P25445 230-314 limits assumed): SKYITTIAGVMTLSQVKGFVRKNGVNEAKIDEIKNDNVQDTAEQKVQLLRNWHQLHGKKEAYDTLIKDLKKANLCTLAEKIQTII
Excerpt: as §1, §2

[1] = Two-hybrid β-galactosidase expression filter assay in SFY526 yeast, empty pGBT9 vector; type: binding; conditions: negative control bait
Excerpt: as §1, §2

human p75 IC = target: T2, human p75 IC (Homo sapiens, UniProt P20333); assay: Two-hybrid β-galactosidase expression filter assay in SFY526 yeast, DNA-binding domain hybrid human p75 IC; conditions: specificity test
T2 construct: residues 287-461 of the intracellular domain of the human p75 TNF-R; expressed in transfected cells; host or cells: SFY526 yeast
T2 sequence (P20333 287-461): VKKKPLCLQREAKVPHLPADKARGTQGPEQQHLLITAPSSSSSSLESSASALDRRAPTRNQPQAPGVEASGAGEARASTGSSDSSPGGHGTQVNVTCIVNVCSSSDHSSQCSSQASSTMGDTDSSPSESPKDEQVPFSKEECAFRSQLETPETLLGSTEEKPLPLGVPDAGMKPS
Excerpt: as §1, §2

MORT1DD (130-245) = target: T3, MORT1DD (130-245) (Homo sapiens, UniProt Q13158); assay: Two-hybrid β-galactosidase expression filter assay in SFY526 yeast, DNA-binding domain hybrid MORT1DD (130-245)
T3 construct: 130-245 MORT-1; expressed in transfected cells
T3 sequence (Q13158 82-197): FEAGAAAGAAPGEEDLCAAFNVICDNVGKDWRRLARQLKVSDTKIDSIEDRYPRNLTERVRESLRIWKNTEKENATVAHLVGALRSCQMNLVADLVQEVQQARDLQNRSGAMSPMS
Excerpt: as §1, §2

MORT-1 = target: T4, MORT-1 (Homo sapiens, UniProt Q13158, G32V); assay: Two-hybrid β-galactosidase expression filter assay in SFY526 yeast, DNA-binding domain hybrid MORT-1; parameters: the full-length MORT-1 cDNA was used (MORT 1); expressed in transfected cells; host or cells: SFY526 yeast; conditions: substance as activation domain hybrid
T4 sequence (Q13158 with tags, fused parts or gaps G32V): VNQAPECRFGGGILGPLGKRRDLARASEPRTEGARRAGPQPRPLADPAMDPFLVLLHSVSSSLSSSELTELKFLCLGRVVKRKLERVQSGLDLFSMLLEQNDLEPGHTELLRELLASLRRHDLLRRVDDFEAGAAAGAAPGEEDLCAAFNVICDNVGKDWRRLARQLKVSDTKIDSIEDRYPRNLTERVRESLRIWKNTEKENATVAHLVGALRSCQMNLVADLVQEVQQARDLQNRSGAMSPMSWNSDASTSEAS
Excerpt: as §1, with “sites. Only those transformed host cells (cotransformants) in which the two hybrid proteins are expressed and are capable of interacting with each other, will be capable of expressing the reporter gene.” for “sites.”
The yeast two-hybrid test was further applied to evaluate the specificity of binding of MACH to MORT-1, in particular, to define the region in MORT-1 to which MACH binds, as well as to determine which of the MACH ORFs interacts with MORT-1, the procedures being as set forth herein above in Examples 1 and 2. Briefly, various MORT-1 and MACH constructs were prepared for testing the interaction of the proteins encoded by the Gal4 DNA-binding domain and activation domain constructs within transfected SFY526 yeast cells as assessed by the β-galactosidase expression filter assay. […] In the assay, the development of color was determined, where the greater the color development, the greater the interaction between the constructs encoded by the DNA-binding domain and activation domain; Color development was depicted by symbols, where “+++” and “+” indicate the development of a strong color within 30 and 90 min. of the assay, respectively, and “−−−” indicates the lack of development of color within 24 hrs. of the assay. […]

human CD40 IC = target: T5, human CD40 IC (Homo sapiens, UniProt P25942); assay: Two-hybrid β-galactosidase expression filter assay in SFY526 yeast, DNA-binding domain hybrid human CD40 IC; conditions: specificity test
T5 construct: residues 216-277 of the intracellular domain of the human CD40; expressed in transfected cells; host or cells: SFY526 yeast
T5 sequence (P25942 216-277): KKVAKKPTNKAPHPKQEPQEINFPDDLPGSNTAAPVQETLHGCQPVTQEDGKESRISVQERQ
Excerpt: as §1, §2

B1: MACH: MORT-1 associated CED3 homolog; full-length MACH cDNA construct; protein later renamed MACHβ1 (protein)
chain: MDFSRNLYDIGEQLDSEDLASLKFLSLDYIPQRKQEPIKDALMLFQRLQEKRMLEESNLSFLKELLFRINRLDLLITYLNTRKEEMERELQTPGRAQISAYRVMLYQISEEVSRSELRSFKFLLQEEISKCKLDDDMNLLDIFIEMEKRVILGEGKLDILKRVCAQINKSLLKIINDYEEFSKERSSSLEGSPDEFSNDFGQSLPNEKQTSGILSDHQQSQFCKSTGESAQTSQH
Lamin
  development of color (interaction with DNA-binding domain hybrid): −−− (“−−−” indicates the lack of development of color within 24 hrs. of the assay)
HeLa cells
  cytotoxic effect of induced overexpression in HeLa cells: dramatic cytotoxic effect
Human FAS DD
  development of color (interaction with DNA-binding domain hybrid): −−− (“−−−” indicates the lack of development of color within 24 hrs. of the assay)
[1]
  development of color (interaction with DNA-binding domain hybrid): −−− (“−−−” indicates the lack of development of color within 24 hrs. of the assay)
Human p75 IC
  development of color (interaction with DNA-binding domain hybrid): −−− (“−−−” indicates the lack of development of color within 24 hrs. of the assay)
MORT1DD (130-245)
  development of color (interaction with DNA-binding domain hybrid): −−− (“−−−” indicates the lack of development of color within 24 hrs. of the assay)
MORT-1
  development of color (interaction with DNA-binding domain hybrid): +++ (“+++” and “+” indicate the development of a strong color within 30 and 90 min. of the assay, respectively)
Human CD40 IC
  development of color (interaction with DNA-binding domain hybrid): −−− (“−−−” indicates the lack of development of color within 24 hrs. of the assay)
